Test results taken from the supplement of paper PMC10567573.

B1: IQUB (parent)
chain: CRNCINLQNEAQKRESFLKYKCLL
B2: IQUB (parent)
chain: KIREKEEWIKLDYHRRHNPKTNED

Variants of: B1
Experiment: protein stability index of a GFP-peptide fusion (GPS, HEK-293T) (PSI 1-6); higher = more stable
Conditions: c terminus: a fixed tail appended
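Further: lentivirally expressed fusions sorted by FACS into six bins by GFP to DsRed ratio, PSI derived from sequencing read proportions per bin multiplied by bin number.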

Protein stability index: each site, then its substitutions
C4: D 1.98, K 2.15, I 2.28, G 1.85, T 1.69, S 1.51, E 1.41, R 3.13, M 2.12, V 1.92, P 2, Y 2.51, A 2.02, Q 2.13, H 1.74, F 2.15, L 1.53, N 1.93, W 1.41
N3: D 1.92, E 1.37, Y 1.76, T 3.29, A 2.14, Q 2.7, I 2.71, G 1.76, C 1.61, R 1.76, V 1.7, L 1.91, S 2.59, M 1.08, P 1.92, W 1.68, F 1.83, H 1.99, K 1.9
C1: R 1.94, K 1.9, N 2.33, G 2.13, D 2.28, S 1.9, Y 1.86, H 2.23, W 2.08, E 1.87, M 1.91, I 1.41, Q 2.01, V 2.78, A 2.36, P 2.19, F 1.5, T 2.66, L 1.72
I5: D 2.05, A 1.79, C 1.64
R2: K 1.92, F 1.89, L 1.93, E 2.23, I 1.45, C 1.66, S 1.86, G 1.28, P 2.25, V 1.41, Y 1.64, H 2.56, A 1.95, D 2.3, T 1.93, M 1.89, W 1.98, N 2.22, Q 1.53

Variants of: B2
Experiment: as above
Conditions: c terminus: a fixed tail appended

Protein stability index, by site and new letter:
E23: T 4.54, A 4.52, N 4.24, Q 4.06, V 4.18, S 4.25, D 5.01, R 3.72, W 5.01, H 4.18, M 4.17, I 4.13, G 4.44, C 3.91, P 4.28, F 4.45, L 4.17, Y 3.77
R16: N 4.91, K 3.6, C 4.52, I 4.38, L 3.86, D 3.61, Q 5.08, P 4.75, V 3.62, Y 4.31, S 5.12, M 4.63, E 5.2, A 4.54, T 4.94, F 3.7, W 4.22, G 4.74, H 4.4
L11: K 4.71, T 5.2, E 4.32, P 4.78, N 5.15, C 4.52, G 4.64, H 4.66, R 5.29, F 4.33, V 4.55, I 3.78, D 4.93, M 4.71, Q 5.37, Y 4.81, W 4.13, S 5.23
H14: S 4.61, Y 4.41, G 4.88, L 4.1, A 4.8, V 4.24, C 4.46, I 4.58, T 4.5, F 4.34, D 5.35, W 3.73, R 4.58, P 4.51, Q 5.02, E 3.72, N 4.89, K 3.87
N22: P 4.36, V 4.15, S 4.72, A 4.27, K 4.29, R 4.03, M 4.29, T 4.6, H 4.22, Y 4.01, W 2.8, I 4.01, C 4.85, F 3.84, Q 4.66, D 4.7, L 4.2, G 4.79
Y13: F 4.51, C 4.33, L 4.8, D 5.04, P 4.51, G 4.99, W 4.18, E 5.18, V 4.64, K 5.3, R 5.28, M 4.76, H 4.87, T 4.49, I 3.95, N 5.41, S 5.11, A 4.36, Q 5.04
P19: I 4.92, S 4.99, H 4.3, D 4.77, A 4.59, L 3.91, Y 4.06, G 4.46, W 4.33, N 5.13, E 4.65, C 4.61, K 4.95, Q 4.68, M 4.71, T 4.49
R15: D 5.33, V 4.97, M 4.3, I 4.29, P 4.17, K 4.64, F 4.23, T 4.76, S 5.22, H 4.36, G 4.83, N 4.39, Y 4.08, W 4.16, C 3.89, A 5.05, L 4.49, Q 3.98, E 4.46
D12: F 4.01, C 3.93, L 3.79, W 3.79, Q 4.55, A 4.07, P 4.41, H 4.41, S 3.59, V 3.65, K 4.54, T 3.79, M 3.7, Y 3.62, E 4.27, I 3.28, N 3.92, R 4.21, G 4.51
H17: T 4.57, E 4.11, R 4.51, Q 5.08, Y 3.99, C 4.16, L 4.67, S 4.83, M 4.21, K 4.23, F 4.41, N 4.16, V 4.87, I 4.5, A 4.71, P 5.17, D 5.08, G 4.97
N18: K 4.46, D 4.86, G 4.93, T 4.27, F 4, V 4.32, M 4.42, Y 3.71, R 4.31, L 3.79, A 4.32, I 4.19, P 4.89, H 4.27, C 3.99, Q 3.97, S 4.91, E 4.48
T21: V 4.46, R 4.82, D 4.79, Y 4.52, F 4.53, L 4.13, M 4.1, W 3.77, Q 4.75, S 4.76, A 5.18, C 4.57, K 5.05, N 4.75, I 4.33, E 4.6, H 4.08, P 4.74, G 5.12
K20: A 4.52, D 4.65, M 4.53, V 4.72, R 4.66, W 3.08, N 4.21, Q 4.39, Y 4.03, T 4.64, S 4.81, G 4.84, C 4.27, E 5.2, F 2.51, I 4.37, H 4.64, P 5.07
D24: T 4.16, Y 3.65, L 3.53, Q 4.13, N 4.32, V 3.21, M 3.88, S 4.27, R 3.89, K 4.42, F 3.27, P 3.66, H 4.04, A 3.91, W 3.02, I 3.83, C 3.29, G 3.72
